Entries after “also recorded” stand apart in the source; their conditions may differ. Like-named read-outs stand apart in the source and are kept apart here.
How the values were obtained:
TrkA = TrkA (Homo sapiens, UniProt P04629); assay: Off-chip Mobility Shift Assay, IC50 against TrkA kinase; format: biochemical; conditions: ATP 75 μM, CSKtide 1000 nM
Experimental: The test compound was dissolved in dimethylsulfoxide (DMSO) and then the solution was further 25-fold diluted with assay buffer to make the final test compound solution. The conjugate was tested at the following concentrations: 30000 nM, 10000 nM, 3000 nM, 1000 nM, 300 nM, 100 nM, 30 nM, 10 nM, 3 nM and 1 nM.
The assay procedure is represented by an Off-chip Mobility Shift Assay (MSA) and is reported below:
IC50 value was calculated from concentration vs. % inhibition curves by fitting to a four parameter logistic curve.

rat = assay: Acute dermal toxicity study in rats; format: in vivo
Experimental: The acute toxicity of the conjugate of Example 3 was investigated following administration of a single dermal dose to the rat.
A single dose of 2000 mg/kg was administered to a group of 5 male and 5 female animals for a 24 hour period. The day before scheduled dosing the fur was removed from the dorsal surfaces of the trunk over an estimated area of 10% of the total body surface. Care was taken to avoid any damage or abrasion to the skin. The test item was administered topically at a dose volume of 4 ml/kg body weight, just after its preparation. The required aliquot of the formulated test item was spread evenly over a gauze measuring 2.5×2.5 cm. The gauze patch was then placed onto the animal's skin, with the test item in direct contact with the skin. A strip of synthetic film was placed over the treated site and the whole assembly held in place by encircling the trunk of the animal with a length of elastic adhesive bandage. After a period of 24 hours, the tape dressing will be removed. The treated skin site was then gently washed free of any remaining test item using lukewarm water. Throughout the study, all animals will be checked twice daily. Animals were examined for signs of reaction to treatment on dosing, approximately 30 min, 2 and 4 hours after dosing on day 1, then daily for a total of 14 days. Each animal was weighed on the day of allocation to the study, on the day of dosing (day 1) and on days 8 and 15. After a 14 day period all animals were killed and subjected to a necropsy examination.

[1] = Toxicokinetics (plasma levels) in 13 week dermal rabbit study; format: in vivo
From the text: Blood samples were taken from each animal on Day 1 and Week 13 for toxicokinetic evaluations.

[2] = Solubility in RPMI 1640 complete medium; format: physicochemical
[3] = tested on: mouse lymphoma L5178Y cells; assay: Preliminary cytotoxicity assay in L5178Y cells; format: cell-based
Experimental: A preliminary cytotoxicity assay was performed. Based on the solubility results, the test item was assayed at a maximum dose level of 5000 μg/ml both in the absence and presence of S9 metabolism. A wide range of lower dose levels were included in the treatment series: 2500, 1250, 625, 313, 156, 78.1, 39.1 and 19.5 μg/ml.

Escherichia coli WP2 = assay: Photomutagenicity assay in bacteria (reverse mutation, UV light); format: cell-based; conditions: up to 5000 μg/plate
From the text: (§1) The test item was examined for photomutagenic activity by assaying for reverse mutation to prototrophy in the prokaryotic organisms, Salmonella typhimurium and Escherichia coli, after exposure to light.
(§2) The three S. typhimurium tester strains, TA1537, TA98 and TA100, and the E. coli tester strain, WP2, were used. The bacteria, co-plated with the test item in soft-agar, were irradiated with various doses of UV light.
(§3) The procedures adopted were developed by Ames et al., 1975 and revised by Maron and Ames, 1983.
(§4) The test item was used as a solution in sterile distilled water.
(§5) The test item was assayed in the toxicity test at a maximum dose level of 5000 μg/plate and at four lower concentrations spaced at approximately half-log intervals: 1580, 500, 158 and 50.0 μg/plate. Two widely-spaced UV doses were selected for each bacterial tester strain on the basis of the maximum tolerated dose.
(§6) Two independent experiments were performed using the plate incorporation method.
(§7) The test item was assayed at a maximum dose level of 5000 μg/plate and at four lower dose levels spaced by two-fold dilutions: 2500, 1250, 625 and 313 μg/plate. The prepared plates were exposed to the following UVA and UVB doses (Table 5): […]

[4] = tested on: Salmonella typhimurium TA1537, TA98 and TA100; assay: as above; format: cell-based; conditions: up to 5000 μg/plate
From the text: as §1, §2, §3, §4, §5, §6, §7

Balb/c 3T3 cells = format: cell-based; conditions: for IC50 (neutral red uptake): up to 1000 μg/ml
Experimental: The potential in vitro phototoxicity of the test item was evaluated by the measurements of neutral red uptake for cellular toxicity on cultures of Balb/c 3T3 cells treated with different doses of the test item and exposed to UVA irradiation. Test item solutions were prepared using Earle's Balanced Salt Solution (EBSS).
A preliminary dose-range finding experiment in the presence (+UVA) and in the absence (−UVA) of light was undertaken in order to select appropriate dose levels for the main assays. The test item was assayed at a maximum dose level of 1000 μg/ml (the upper limit indicated in the study protocol) and at a wide range of lower dose levels: 500, 250, 125, 62.5, 31.3, 15.6 and 7.81 μg/ml. […] In this case the chemical is considered to be non-phototoxic. The same dose range was used for the main assay.
A main experiment was performed using the following dose levels: 1000, 500, 250, 125, 62.5, 31.3, 15.6 and 7.81 μg/ml.

[5] = rat, in vivo
Experimental: The purpose of this study was to evaluate the toxicity of the test item in rats after daily dermal administration (6 hours exposure) over a period of 13 weeks and to investigate possible recovery from any potential treatment-related effects over a period of 4 consecutive weeks. The toxicokinetic profile was also evaluated.
Three groups, each of 10 male and 10 female Sprague Dawley rats (cf. Table 1: male numbered with even numbers, female numbered with uneven numbers) received the test item by dermal application at dosages of 0.5, 2.5 and 5 mg/kg/day for 13 consecutive weeks (Table 1: group numbers 2-4). A fourth similarly constituted group received the vehicle alone (purified water) and acted as a control (Table 1: group number 1). Five additional animals for each sex were included in the high and control groups (Table 1: group numbers 4 and 1, respectively) for recovery assessment. In addition, 3 satellite groups for toxicokinetics, including 9 males and 9 females (Table 2: group numbers 5-8, respectively), and 1 control group, including 3 males and 3 females (Table 2: group number 5), were treated as the main groups for toxicokinetic evaluations.

[6] = tested on: New Zealand White Specific Pathogen Free (SPF) rabbits; conditions: rabbit, in vivo
Experimental: (§8) Three groups, each of 6 male and 6 female New Zealand White Specific Pathogen Free (SPF) rabbits (cf. Table 3: male numbered with even numbers, female numbered with uneven numbers), received the test item by dermal application at dosages of 0.5, 2.5 and 5 mg/animal/day for 13 consecutive weeks (Table 3, group numbers 2-4, respectively). A fourth similarly constituted group received the vehicle alone (purified water) and acted as a control (Table 3, group number 1). Control and high dose groups (Table 3, group numbers 4 and 1, respectively). included 3 additional animals per sex for recovery assessment.
(§9) The following investigations were performed: daily clinical signs, body weight, food consumption, macroscopic observations of the treatment sites, clinical pathology investigations, terminal body weight, organ weight, post mortem macroscopic observations and histopathological examination.
(§10) The treatment sites were examined, each day, approximately 3 hours after the start of dosing. Irritation of the sites, when compared to the adjacent untreated skin, was assigned a numerical value according to the table below:

[7] = tested on: New Zealand White Specific Pathogen Free (SPF) rabbits; assay: 13 week dermal toxicity study in rabbits with 4 week recovery
Experimental: as §8, §9, §10

[8] = 0.5, 2.5 and 5 mg/animal/day dermal, 13 weeks

Sequence of TrkA (P04629 33-796): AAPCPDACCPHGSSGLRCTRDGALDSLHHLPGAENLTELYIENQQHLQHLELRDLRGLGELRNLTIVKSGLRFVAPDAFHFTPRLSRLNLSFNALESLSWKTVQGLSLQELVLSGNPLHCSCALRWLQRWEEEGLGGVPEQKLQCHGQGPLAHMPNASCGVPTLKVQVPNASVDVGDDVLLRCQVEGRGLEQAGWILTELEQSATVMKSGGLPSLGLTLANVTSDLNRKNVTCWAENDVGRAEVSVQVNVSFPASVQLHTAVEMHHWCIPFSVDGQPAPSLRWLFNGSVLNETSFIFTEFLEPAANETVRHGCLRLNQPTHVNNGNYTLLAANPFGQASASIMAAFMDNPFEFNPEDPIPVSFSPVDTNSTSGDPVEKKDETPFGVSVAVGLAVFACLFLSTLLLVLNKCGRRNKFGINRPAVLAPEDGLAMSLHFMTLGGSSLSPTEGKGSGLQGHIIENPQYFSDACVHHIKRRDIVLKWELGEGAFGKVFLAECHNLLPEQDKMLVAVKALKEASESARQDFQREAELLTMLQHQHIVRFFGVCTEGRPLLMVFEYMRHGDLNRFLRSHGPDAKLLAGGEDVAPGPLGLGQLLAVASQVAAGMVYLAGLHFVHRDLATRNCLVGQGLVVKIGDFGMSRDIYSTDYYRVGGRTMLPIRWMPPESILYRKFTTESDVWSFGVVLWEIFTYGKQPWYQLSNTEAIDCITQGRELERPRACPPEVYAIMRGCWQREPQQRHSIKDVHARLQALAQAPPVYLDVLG

Question: What does the source list for “oxazolidindionic conjugate of K252a with PEG (1892 MW) [test item]”?
Answer: IC50 (TrkA): 0.202 µM; abnormalities in the treated site (rat; 2000 mg/kg single dermal dose): No abnormalities were observed in the treated site; clinical signs (rat; 2000 mg/kg single dermal dose): no clinical signs were observed; internal abnormalities at necropsy (rat; 2000 mg/kg single dermal dose): No internal abnormalities were found at necropsy; mortality (rat; 2000 mg/kg single dermal dose, 14 day observation): No mortality occurred; changes in body weight (rat; 2000 mg/kg single dermal dose, end of study): within the expected range; toxic effect (rat; dermal exposure over 24 hours at 2000 mg/kg): no toxic effect; LD50 (rat; single dermal dose, 24 hour exposure, rat): greater than 2000 mg/kg; accumulation ([1]; daily dermal administration over 13 weeks): no accumulation occurred; absorption through the dermal route ([1]; rabbit plasma sample analyses): only minimally absorbed; absorption ([1]; week 13, dermal): Very low absorption; solubility [2]: ≥ 50.0 mg/mL; relative survival ([3]; absence of S9, long treatment time, two higher concentrations, % of concurrent negative control): approximately 60%; relative survival ([3]; absence of S9, short treatment time, several concentrations, no dose relationship): slight reduction of relative survival; toxicity ([3]; presence of S9, up to 5000 μg/ml): no relevant toxicity was observed; reverse mutation (revertant colonies) in the presence of UV light (Escherichia coli WP2; UVA and UVB): did not induce two-fold increases in the number of revertant colonies; also recorded: does not induce reverse mutation; toxicity (Escherichia coli WP2; any UV irradiation dose): No relevant toxicity was observed; reverse mutation (revertant colonies) in the presence of UV light ([4]; UVA): did not induce two-fold increases in the number of revertant colonies; also recorded: does not induce reverse mutation; toxicity ([4]; any UV irradiation dose): No relevant toxicity was observed; Photo Irritation Factor (PIF) (Balb/c 3T3 cells): could not be calculated; mean photo effect (MPE) (Balb/c 3T3 cells): 0.089; phototoxicity classification (Balb/c 3T3 cells): non phototoxic; IC50 (neutral red uptake) (Balb/c 3T3 cells; main experiment, both curves (+UV and -UV)): no IC50 value; IC50 (neutral red uptake) (Balb/c 3T3 cells; preliminary dose-range finding, +UVA and -UVA): no IC50 value was calculable; plasma levels / incidence of absorption [5]: a lower incidence of absorption was detected; macroscopic and microscopic observations [6]: no treatment-related changes were noted; adverse effects ([7]; 0.5, 2.5 and 5 mg/animal/day): No adverse effects were seen at any of the dose levels; clinical signs [7, 8]: no treatment-related clinical signs were observed; mortality [7, 8]: No treatment-related mortality occurred; absolute and relative organ weight ([7]; 13 weeks dermal): no changes in absolute and relative organ weight of toxicological significance were observed; body weight ([7]; 13 weeks dermal): No relevant differences in body weight were recorded; food consumption ([7]; 13 weeks dermal): comparable to controls; haematology and clinical chemistry ([7]; 13 weeks dermal): no changes of toxicological significance were recorded; terminal body weight ([7]; 13 weeks dermal): comparable between control and treated groups; No Observed Adverse Effect Level (NOAEL) ([7]; daily dermal administration to rabbits, 13 weeks): 5 mg/animal/day; irritation of treated sites (macroscopic observations) ([7]; daily dermal, 13 weeks): No signs of irritation were observed; ophthalmic examination ([7]; end of the treatment period): no treatment-related lesions were detected

Source: patent US8926955B2, “Synthesis of polymer conjugates of indolocarbazole compounds” (priority 2008, dated 2015)
